Values quoted from earlier work as cited in paper PMC6928821.
Read-outs that look alike come from different tables or passages of the source.

Tests used:
[1] = biological target: p300 Taz2 (Homo sapiens) (UniProt Q09472)
[2] = biological target: p300 Taz2 (Homo sapiens) (UniProt Q09472); remark: listed apart in the source
[3] = biological target: p300 (Homo sapiens) (UniProt Q09472)
p300 (Homo sapiens), sequence (Q09472 2-2414): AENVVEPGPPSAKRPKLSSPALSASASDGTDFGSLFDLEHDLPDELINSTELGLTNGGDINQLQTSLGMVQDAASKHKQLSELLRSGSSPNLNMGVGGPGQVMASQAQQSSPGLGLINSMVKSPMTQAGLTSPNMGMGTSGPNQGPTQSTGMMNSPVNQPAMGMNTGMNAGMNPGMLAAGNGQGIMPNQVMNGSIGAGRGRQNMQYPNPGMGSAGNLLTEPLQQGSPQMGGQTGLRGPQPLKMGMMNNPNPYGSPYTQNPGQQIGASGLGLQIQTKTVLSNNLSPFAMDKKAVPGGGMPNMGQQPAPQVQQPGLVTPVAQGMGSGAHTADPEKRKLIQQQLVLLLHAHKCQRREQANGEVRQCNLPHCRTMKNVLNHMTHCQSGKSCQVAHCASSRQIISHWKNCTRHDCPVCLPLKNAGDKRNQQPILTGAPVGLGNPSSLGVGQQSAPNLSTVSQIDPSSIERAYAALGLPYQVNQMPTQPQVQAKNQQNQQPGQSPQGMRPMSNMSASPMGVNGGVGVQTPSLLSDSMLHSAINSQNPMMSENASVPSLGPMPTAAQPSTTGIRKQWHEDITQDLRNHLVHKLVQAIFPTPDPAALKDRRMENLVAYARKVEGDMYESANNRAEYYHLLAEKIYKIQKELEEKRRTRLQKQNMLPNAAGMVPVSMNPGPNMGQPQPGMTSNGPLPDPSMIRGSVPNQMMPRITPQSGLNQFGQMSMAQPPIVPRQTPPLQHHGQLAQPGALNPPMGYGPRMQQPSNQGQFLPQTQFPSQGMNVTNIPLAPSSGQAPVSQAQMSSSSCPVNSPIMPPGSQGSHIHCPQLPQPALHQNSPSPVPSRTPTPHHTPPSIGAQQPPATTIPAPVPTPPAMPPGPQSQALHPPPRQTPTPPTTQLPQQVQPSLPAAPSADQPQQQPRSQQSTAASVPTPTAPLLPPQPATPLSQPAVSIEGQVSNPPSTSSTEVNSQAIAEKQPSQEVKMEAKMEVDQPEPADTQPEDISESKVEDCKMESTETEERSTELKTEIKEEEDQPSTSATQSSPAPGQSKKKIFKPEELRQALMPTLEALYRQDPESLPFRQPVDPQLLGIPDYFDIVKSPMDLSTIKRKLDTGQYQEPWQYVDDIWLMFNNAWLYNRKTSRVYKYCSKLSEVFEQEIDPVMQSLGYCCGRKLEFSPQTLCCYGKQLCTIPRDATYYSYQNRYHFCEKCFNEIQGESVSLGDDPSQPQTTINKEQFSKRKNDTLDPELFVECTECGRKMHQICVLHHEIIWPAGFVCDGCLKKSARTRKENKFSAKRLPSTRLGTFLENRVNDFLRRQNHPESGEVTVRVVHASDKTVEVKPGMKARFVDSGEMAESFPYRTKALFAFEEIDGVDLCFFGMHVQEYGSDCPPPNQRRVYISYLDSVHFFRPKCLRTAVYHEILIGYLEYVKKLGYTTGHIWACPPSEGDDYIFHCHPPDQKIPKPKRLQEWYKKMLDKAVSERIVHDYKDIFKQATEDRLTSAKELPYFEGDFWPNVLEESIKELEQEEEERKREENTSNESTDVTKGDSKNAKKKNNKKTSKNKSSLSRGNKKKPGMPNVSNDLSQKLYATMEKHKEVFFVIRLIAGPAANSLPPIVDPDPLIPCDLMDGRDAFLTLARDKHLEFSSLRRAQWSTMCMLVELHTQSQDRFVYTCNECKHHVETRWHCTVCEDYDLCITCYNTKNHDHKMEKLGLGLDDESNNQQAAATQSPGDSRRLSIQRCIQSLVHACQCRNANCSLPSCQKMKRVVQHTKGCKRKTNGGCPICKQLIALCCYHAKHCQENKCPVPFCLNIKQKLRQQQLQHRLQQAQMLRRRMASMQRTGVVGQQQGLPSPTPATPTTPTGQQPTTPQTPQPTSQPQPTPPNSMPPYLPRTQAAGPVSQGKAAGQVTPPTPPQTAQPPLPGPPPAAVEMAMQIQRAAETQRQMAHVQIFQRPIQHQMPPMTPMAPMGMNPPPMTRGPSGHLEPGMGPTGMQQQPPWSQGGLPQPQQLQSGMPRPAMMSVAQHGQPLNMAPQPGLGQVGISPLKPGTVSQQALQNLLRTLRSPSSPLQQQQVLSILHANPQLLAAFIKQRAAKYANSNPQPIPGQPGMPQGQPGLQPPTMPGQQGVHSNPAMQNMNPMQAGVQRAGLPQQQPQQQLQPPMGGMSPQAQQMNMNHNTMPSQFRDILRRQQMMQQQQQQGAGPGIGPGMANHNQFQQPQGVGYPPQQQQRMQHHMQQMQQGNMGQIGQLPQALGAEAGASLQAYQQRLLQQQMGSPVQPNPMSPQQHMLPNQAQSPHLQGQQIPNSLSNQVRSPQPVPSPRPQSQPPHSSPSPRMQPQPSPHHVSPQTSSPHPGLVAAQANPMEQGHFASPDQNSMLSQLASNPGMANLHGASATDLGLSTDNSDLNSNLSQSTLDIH

p53 TAD1 TAD1, sequence (P04637 13-37): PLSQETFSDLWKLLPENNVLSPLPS
p300 Taz2 (Homo sapiens), sequence (Q09472 1723-1836): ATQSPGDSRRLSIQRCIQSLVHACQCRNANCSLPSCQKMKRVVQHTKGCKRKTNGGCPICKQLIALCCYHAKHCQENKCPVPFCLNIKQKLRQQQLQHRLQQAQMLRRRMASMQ
p53 TAD1 1-39, sequence (P04637 1-39): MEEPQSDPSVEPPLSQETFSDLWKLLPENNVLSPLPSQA

Kd [1] [µM]	Kd [2] [µM]	Kd [3] [µM]	Substance
3	0.2		p53 TAD1 TAD1 (from UniProt P04637)
		3	p53 TAD1 1-39 (from UniProt P04637)
